Test results reported in US20030198634A1 (published 2003).

Assays:
human lymphotoxin (TNFβ) = target: T1, human lymphotoxin (TNFβ) (human, UniProt P01374 35-205, limits assumed); assay: cell-based or functional assay
T1 sequence (looked up): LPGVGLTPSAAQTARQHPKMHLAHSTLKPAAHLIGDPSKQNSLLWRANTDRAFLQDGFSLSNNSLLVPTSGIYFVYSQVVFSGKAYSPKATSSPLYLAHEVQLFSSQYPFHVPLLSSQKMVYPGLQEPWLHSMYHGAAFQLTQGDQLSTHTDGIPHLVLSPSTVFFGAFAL

[1] = target: human tumor necrosis factor-α (TNFα) (human, UniProt P01375 77-233); assay: cell-based or functional assay
human tumor necrosis factor-α (TNFα), sequence (P01375 77-233): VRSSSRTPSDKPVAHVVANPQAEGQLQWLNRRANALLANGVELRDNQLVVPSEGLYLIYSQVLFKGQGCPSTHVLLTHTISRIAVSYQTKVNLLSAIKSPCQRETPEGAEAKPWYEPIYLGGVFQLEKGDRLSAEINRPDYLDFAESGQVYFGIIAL

## p55-sf2 (p55 TNF receptor/IgG1 heavy chain single fusion with truncated light chain JCK) (from UniProt P19438) (Fc fusion)
Human lymphotoxin (TNFβ)
  amount needed for the same degree of inhibition of TNFβ, against p75P-sf2 (fold against p75P-sf2): 3

B1: chimeric mouse/human IgG1 anti-platelet mAb (7E3) (antibody, INN chains, looked up, V domains shown)
VH: EVQLQQSGTVLARPGASVKMSCEASGYTFTNYWMHWVKQRPGQGLEWIGAIYPGNSDTSYIQKFKGKAKLTAVTSTTSVYMELSSLTNEDSAVYYCTLYDGYYVFAYWGQGTLVTVSA
VL: EIVLTQSPVTLSVTPGDSVSLSCRASRDISNNLHWFQQTSHESPRLLIKYASQSMSGIPSRFSGSGSGTDFTLSINSVETEDFGMYFCQQTNSWPYTFGGGTKLEIK
modifications: IgG1
[1]
  IL-6 in supernatant of FS-4 fibroblasts (ng/ml), rhTNF 0.3 ng/ml, antibody 4 µg/ml (no antibody: 1.36): 1.6 ng/mL
  IL-6 in supernatant of FS-4 fibroblasts (ng/ml), rhTNF 1.5 ng/ml, antibody 4 µg/ml (no antibody: 2.00): 1.96 ng/mL
  IL-6 in supernatant of FS-4 fibroblasts (ng/ml), rhTNF 7.5 ng/ml, antibody 4 µg/ml (no antibody: 2.56): 2.16 ng/mL

B2: p75P-sf2 (p75 amino acids 1-182 fused to the IgG1 heavy chain; lacks the C-terminal 53 amino acids of the p75 extracellular domain) (Fc fusion)
chain: QLPAQVAFTPYAPEPGSTCRLREYYDQTAQMCCSKCSPGQHAKVFCTKTSDTVCDSCEDSTYTQLWNWVPECLSCGSRCSSDQVETQACTREQNRICTCRPGWYCALSKQEGCRLCAPLRKCRPGFGVARPGTETSDVVCKPCAPGTFSNTTSSTDICRPHQICNVVAIPGNASMDAVCTSTSDGTLVTVSS
[1]
  IC50 = concentration of fusion protein required to inhibit 2 ng/ml (39.2 pM) TNFα by 50%, WEHI 164 cytotoxicity assay: 70 pM
  Molar ratio fp: TNFα at IC50, WEHI 164 cytotoxicity assay: 1.8

B3: p75-sf2 (complete extracellular domain of p75 fused to the IgG1 heavy chain) (Fc fusion)
chain: QLPAQVAFTPYAPEPGSTCRLREYYDQTAQMCCSKCSPGQHAKVFCTKTSDTVCDSCEDSTYTQLWNWVPECLSCGSRCSSDQVETQACTREQNRICTCRPGWYCALSKQEGCRLCAPLRKCRPGFGVARPGTETSDVVCKPCAPGTFSNTTSSTDICRPHQICNVVAIPGNASMDAVCTSTSPTRSMAPGAVHLPQPVSTRSQHTQPTPEPSTAPSTSFLLPMGPSPPAEGSTGDGTLVTVSS
Human lymphotoxin (TNFβ)
  amount needed for the same degree of inhibition of TNFβ, against p75P-sf2: 3 fold against p75P-sf2
